According to patent US20020146774A1 (LUDWIG INSTITUTE FOR CANCER RESEARCH, published 2002):
Where no end group is shown, it is not given here. [ ]: non-standard residue; d: D form. pS = N[C@@H](COP(=O)(O)O)C(=O)O

Target: T1, GST (UniProt P08515 1-218 = GST)
T1 construct: Control for GST-Smad4; also called GST protein
Assay: peptide-Sepharose pull-down, anti-GST immunoblot
Excerpt: To investigate whether phosphorylated Ser465 and Ser467 of Smad2 are directly involved in heteromeric interaction with Smad4, phosphorylated and non-phosphorylated peptides corresponding to the C-terminus of Smad2 were made and tested for their ability to bind GST-Smad4 fusion proteins. Short C-terminal peptide of Smad2 SSMS (SNp; SEQ ID NO: 3) or its phosphorylated counterpart (SPp), as well as long C-terminal-peptide […] (LNp; SEQ ID NO: 4) or its phosphorylated counterpart (LPp), coupled to CNBr-Sepharose (peptide beads), were incubated with GST or GST-Smad4 fusion protein. For competition large excesses (200 μM) of non-phosphorylated short (SNp) or long (LNp) peptides or their phosphorylated counterpart (SPp and LPp, respectively) were used (block). Proteins bound to the beads, were resolved by SDS-PAGE, transferred to nitrocellulose membrane and immunoblotted with anti-GST antibodies. Migration positions of GST and GST-Smad4 are shown by double arrows. Molecular masses of standard proteins are indicated on the left side on gel in which protein-stained GST and GST-Smad4 are shown. […] The phosphorylated long peptide also bound GST-Smad4 more efficiently, than the non-phosphorylated counterpart, however, a considerable binding was observed also to the long non-phosphorylated peptide.

T1 sequence (P08515 whole entry): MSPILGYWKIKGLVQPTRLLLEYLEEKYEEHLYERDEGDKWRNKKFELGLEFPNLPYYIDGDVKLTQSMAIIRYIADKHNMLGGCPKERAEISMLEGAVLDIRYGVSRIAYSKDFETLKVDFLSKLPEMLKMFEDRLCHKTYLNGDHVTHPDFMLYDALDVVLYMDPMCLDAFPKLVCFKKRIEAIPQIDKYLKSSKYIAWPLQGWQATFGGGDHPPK

B1: short C-terminal peptide of Smad2 SSpMSp, doubly phosphorylated (peptide)
peptide: KKKS[pS]M[pS]
notes: The same phosphopeptide was the immunogen of the Smad2 phospho tail antibody; also called SPp
binding result: no binding
